# Laboratory results from patent US20200317776A1 (published 2020).
# T1: human TREM2 Fc fusion (entire TREM2 ECD; only one Fc arm fused to TREM2) (human, UniProt Q9NZC2 19-174)
# T1 construct: also called huTREM2-Fc; recombinant hTREM2
# T1 sequence: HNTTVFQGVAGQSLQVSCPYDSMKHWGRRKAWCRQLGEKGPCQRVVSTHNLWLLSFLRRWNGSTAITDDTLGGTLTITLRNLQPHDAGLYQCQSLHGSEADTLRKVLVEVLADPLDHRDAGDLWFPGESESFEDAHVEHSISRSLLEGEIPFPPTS
# T2: cynomolgus monkey TREM2 Fc fusion (entire TREM2 ECD; only one Fc arm fused to TREM2) (cynomolgus monkey, UniProt Q9NZC2 19-174 (human entry))
# T2 construct: also called cyno TREM2-Fc
# T2 chain: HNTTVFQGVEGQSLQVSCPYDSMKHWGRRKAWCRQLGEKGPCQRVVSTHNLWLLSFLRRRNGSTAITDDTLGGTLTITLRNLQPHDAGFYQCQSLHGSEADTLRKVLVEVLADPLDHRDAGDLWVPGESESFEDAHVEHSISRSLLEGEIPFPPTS
# T3: human TREM2 expressed on cells (human, UniProt Q9NZC2 19-230)
# T3 construct: BW5147.G.1.4 cells stably expressing human TREM2 together with Dap12, or endogenous TREM2 of primary human myeloid cells; also called huT2 BW; hTREM2 expressing cell line
# T3 sequence: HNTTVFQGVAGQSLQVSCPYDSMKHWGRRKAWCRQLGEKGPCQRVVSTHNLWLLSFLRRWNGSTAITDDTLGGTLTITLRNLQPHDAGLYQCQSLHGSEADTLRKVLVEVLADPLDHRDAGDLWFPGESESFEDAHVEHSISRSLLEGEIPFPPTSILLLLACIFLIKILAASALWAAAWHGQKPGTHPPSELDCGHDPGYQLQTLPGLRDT
# How the values were obtained:
# [1] = biological target: T1, human TREM2 Fc fusion (entire TREM2 …); assay: BLI, IgG, avid
# Procedure: Briefly, IgGs were loaded on-line onto AHQ sensors, Sensors were equilibrated off-line in assay buffer for 30 minutes and then monitored on-line for 60 seconds for baseline establishment. For avid binding measurement, sensors with loaded IgGs were exposed to 100 nM antigen (human or cynomolgus monkey TREM2 Fe fusion using the entire TREM2 ECD; only one Fc arm was fused to TREM2) for 3 minutes, afterwards they were transferred to assay buffer for 3 minutes for off-rate measurement. Monovalent binding measurements were obtained by loading human TREM2 Fc fusion antigens to AHQ sensor and followed by exposure to 100 nM TREM2 antibody Fab. Kinetics data were fit using a 1:1 binding model in the data analysis software provided by ForteBio. Assay was run at room temperature (25° C.).
# [2] = biological target: T1, human TREM2 Fc fusion (entire TREM2 …); assay: BLI, Fab, monovalent
# [3] = biological target: T2, cynomolgus monkey TREM2 Fc fusion …; assay: BLI, Fab, monovalent
# [4] = biological target: T3, human TREM2 expressed on cells; assay: FACS, hTREM2 BW cells
# From the text: To examine cell binding of affinity matured anti-TREM2 antibodies, both primary human monocyte derived dendritic cells and recombinant, human TREM2 expressing cells were utilized. For the latter, BW5147.G.1.4 (ATCC® TIB48™) and HEK293T cells stably expressing human TREM2 together with Dap12 using viral infection were established. For primary human monocyte derived dendritic cells, human monocytes were isolated from whole blood using RosetteSep Human monocyte enrichment cocktail (Stemcell technologies) and Ficoll centrifugation per manufacturer protocols. After lysing red blood cells with ACK lysing buffer, monocytes were resuspended in complete media (RPMI, 10% FBS, Pen/Strep, L-glutamine, HEPES, non-essential amino acid, Sodium pyruvate) with 100 ng/ml human GM-CSF (hu-GMCSF) and, human IL-4 (hu-IL-4) to differentiate dendritic cells for 6 days.
# Cells were harvested by trypsinization (Hek293T) or scraping (BW and dendritic cells), washed in PBS, counted and plated on 96-well U bottom plates at […] cells/well. The plates were spun at 1,400 rpm for 3 minutes and primary TREM2 or control antibodies were added in FACS buffer (PBS+2% FBS) and incubated on ice for one hour. Cells were subsequently centrifuged as before and washed thrice with FACS buffer. Cells were then incubated with anti-human PE conjugated secondary antibody (BD Biosciences) in FACS buffer for 30 minutes on ice. Cells were again washed thrice with FACS buffer and analyzed on a BD FACS Canto or an Intellicyt Flow Cytometer. Binding was measured as mean fluorescence intensity in the APC channel.
# [5] = biological target: human TREM2/DAP12 fusion protein (human, UniProt O43914 41-113, limits assumed); assay: cell-based or functional assay
# Sequence of human TREM2/DAP12 fusion protein (O43914 other isoform, or with tags, fused parts or gaps limits assumed): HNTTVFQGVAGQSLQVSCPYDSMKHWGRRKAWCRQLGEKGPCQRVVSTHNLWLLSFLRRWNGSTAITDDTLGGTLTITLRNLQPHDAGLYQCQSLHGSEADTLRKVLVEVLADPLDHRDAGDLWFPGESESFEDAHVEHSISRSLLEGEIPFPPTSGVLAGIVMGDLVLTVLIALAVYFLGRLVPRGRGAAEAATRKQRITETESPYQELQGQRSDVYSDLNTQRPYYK
Binder,Kd [1] [nM],Kd [2] [nM],Kd [3] [nM],Kd [4] [nM],"Luciferase activation plate bound 33 nM IgG, FOC [5] [FOC]","Luciferase activation soluble 10 nM IgG, FOC [5] [FOC]"
"AL2p-7 (antibody, V domains shown, Fab and IgG formats under one id) VH: QVQLVQSGAEVKKPGSSVKVSCKASGYAFSLSWMNWVRQAPGQGLEWMGRIYPGDGDTNYAQKFRGRVTITADESTSTAYMELSSLRSEDTAVYYCARLLRNQPGESYAMDYWGQGTLVTVSS VL: GVVMTQTPLSLSVTPGQPASISCRSSQSLIHSNGYTYLHWYLQKPGQSPQLLIYKVSNRRSGVPDRFSGSGSGTDFTLKISRVEAEDVGVYYCSQSTRVPYTFGQGTKLEIK",0.427,8.38,8.95,1.6,18.9,2.35
"AL2p-12 (antibody, V domains shown, Fab and IgG formats under one id) VH: QVQLVQSGAEVKKPGSSVKVSCKASGYAFSSHWMNWVRQAPGQGLEWMGRIYPGDGDTNYAHKFQGRVTITADESTSTAYMELSSLRSEDTAVYYCARLLRNQPGESYAMDYWGQGTLVTVSS VL: GVVMTQTPLSLSVTPGQPASISCRSSQSLVHSNGYTYLHWYLQKPGQSPQLLIYKVSNRRSGVPDRFSGSGSGTDFTLKISRVEAEDVGVYYCSQSTRVPYTFGQGTKLEIK",0.514,5.86,5.25,1.8,15.8,1.96
"AL2p-14 (antibody, V domains shown, Fab and IgG formats under one id) VH: QVQLVQSGAEVKKPGSSVKVSCKASGYAFSSHWMNWVRQAPGQGLEWMGRIYPGDGDTNYAQKFQGRVTITADESTSTAYMELSSLRSEDTAVYYCARLLRNQPGESYAMDYWGQGTLVTVSS VL: GVVMTQTPLSLSVTPGQPASISCRSSRSLVHSNGYTYLHWYLQKPGQSPQLLIYKVSNRFSGVPDRFSGSGSGTDFTLKISRVEAEDVGVYYCSQSTRVPYTFGQGTKLEIK",0.315,4.74,4.66,2.1,27.1,1.79
"AL2p-20 (antibody, V domains shown, Fab and IgG formats under one id) VH: QVQLVQSGAEVKKPGSSVKVSCKASGYAFSSHWMNWVRQAPGQGLEWMGRIYPGDGDTNYARKFQGRVTITADESTSTAYMELSSLRSEDTAVYYCARLLRNQPGESYAMDYWGQGTLVTVSS VL: GVVMTQTPLSLSVTPGQPASISCRTSQSLVHSNGYTYLHWYLQKPGQSPQLLIYKVSNRVSGVPDRFSGSGSGTDFTLKISRVEAEDVGVYYCSQSTRVPYTFGQGTKLEIK",0.35,4.73,4.72,1.2,22.4,2.12
"AL2p-11 (antibody, V domains shown, Fab and IgG formats under one id) VH: QVQLVQSGAEVKKPGSSVKVSCKASGYAFSSDWMNWVRQAPGQGLEWMGRIYPGDGDTNYARKFQGRVTITADESTSTAYMELSSLRSEDTAVYYCARLLRNQPGESYAMDYWGQGTLVTVSS VL: DVVMTQTPLSLSVTPGQPASISCRSSRSLVHSNGYTYLHWYLQKPGQSPQLLIYKVSNRVSGVPDRFSGSGSGTDFTLKISRVEAEDVGVYYCSQSTRVPYTFGQGTKLEIK",0.536,9.83,10.2,2.4,23.6,1.71
"AL2p-10 (antibody, V domains shown, Fab and IgG formats under one id) VH: QVQLVQSGAEVKKPGSSVKVSCKASGYAFSSDWMNWVRQAPGQGLEWMGRIYPGDGDTNYAQKFQGRVTITADESTSTAYMELSSLRSEDTAVYYCARLLRNQPGESYAMDYWGQGTLVTVSS VL: GVVMTQTPLSLSVTPGQPASISCRSSQSLVHSNGYTYLHWYLQKPGQSPQLLIYKVSNRRSGVPDRFSGSGSGTDFTLKISRVEAEDVGVYYCSQSTRVPYTFGQGTKLEIK",0.835,18.5,27.7,3.1,4.63,1.6
"AL2p-19 (antibody, V domains shown, Fab and IgG formats under one id) VH: QVQLVQSGAEVKKPGSSVKVSCKASGYAFSSHWMNWVRQAPGQGLEWMGRIYPGDGDTNYARKFQGRVTITADESTSTAYMELSSLRSEDTAVYYCARLLRNQPGESYAMDYWGQGTLVTVSS VL: DVVMTQTPLSLSVTPGQPASISCRSSRSLVHSNGYTYLHWYLQKPGQSPQLLIYKVSNRVSGVPDRFSGSGSGTDFTLKISRVEAEDVGVYYCSQSTRVPYTFGQGTKLEIK",0.303,4.02,4.01,1.4,25.9,2.06
"AL2p-61 (antibody, IgG1, V domains shown) VH: QVQLVQSGAEVKKPGSSVKVSCKASGYAFSSQWMNWVRQAPGQGLEWMGRIYPGEGDTNYARKFQGRVTITADESTSTAYMELSSLRSEDTAVYYCARLLRNQPGESYAMDYWGQGTLVTVSS VL: GVVMTQTPLSLSVTPGQPASISCRSSQSLVHSNQYTYLHWYLQKPGQSPQLLIYKVSNRRSGVPDRFSGSGSGTDFTLKISRVEAEDVGVYYCSQSTRVPYTFGQGTKLEIK",,3730,3.84,,,
"AL2p-17 (antibody, V domains shown, Fab and IgG formats under one id) VH: QVQLVQSGAEVKKPGSSVKVSCKASGYAFSSHWMNWVRQAPGQGLEWMGRIYPGDGDTNYAQKRQGRVTITADESTSTAYMELSSLRSEDTAVYYCARLLRNQPGESYAMDYWGQGTLVTVSS VL: DVVMTQTPLSLSVTPGQPASISCRSSRSLVHSNGYTYLHWYLQKPGQSPQLLIYKVSNRVSGVPDRFSGSGSGTDFTLKISRVEAEDVGVYYCSQSTRVPYTFGQGTKLEIK",0.255,4.83,4.62,1.4,23.8,2.13
"AL2p-13 (antibody, V domains shown, Fab and IgG formats under one id; also called AL22-13) VH: QVQLVQSGAEVKKPGSSVKVSCKASGYAFSSHWMNWVRQAPGQGLEWMGRIYPGDGDTNYAQKFKGRVTITADESTSTAYMELSSLRSEDTAVYYCARLLRNQPGESYAMDYWGQGTLVTVSS VL: GVVMTQTPLSLSVTPGQPASISCRSSQSLIHSNGYTYLHWYLQKPGQSPQLLIYKVSNRRSGVPDRFSGSGSGTDFTLKISRVEAEDVGVYYCSQSTRVPYTFGQGTKLEIK",0.34,4.8,4.93,1.5,16.5,2.17
"AL2p-18 (antibody, V domains shown, Fab and IgG formats under one id) VH: QVQLVQSGAEVKKPGSSVKVSCKASGYAFSSHWMNWVRQAPGQGLEWMGRIYPGDGDTNYAQKWQGRVTITADESTSTAYMELSSLRSEDTAVYYCARLLRNQPGSSYAMDYWGQGTLVTVSS VL: GVVMTQTPLSLSVTPGQPASISCRTSQSLVHSNGYTYLHWYLQKPGQSPQLLIYKVSNRVSGVPDRFSGSGSGTDFTLKISRVEAEDVGVYYCSQSTRVPYTFGQGTKLEIK",0.229,3.17,2.73,1.3,8.46,2.06
